Literature values in article PMC10532679.

Key:
PKA-C (Homo sapiens) [1] = molecular target: PKA-C (Homo sapiens) (UniProt P17612)
PKA-C (Homo sapiens) [2] = molecular target: PKA-C (Homo sapiens) (UniProt P17612); remark: listed apart in the source

PKA-RII (from UniProt P13861)
Kd (PKA-C (Homo sapiens) [1]): 0.1 nM
Ki (PKA-C (Homo sapiens) [2]): < 1 nM
